Measurements as given in paper doi:10.1101/663153 (bioRxiv, 2019).

Biological target: T1, CysLTR2-GFP10-1D4 L129Q (human, UniProt Q9NS75 1-346, L129Q)
T1 sequence (looked up): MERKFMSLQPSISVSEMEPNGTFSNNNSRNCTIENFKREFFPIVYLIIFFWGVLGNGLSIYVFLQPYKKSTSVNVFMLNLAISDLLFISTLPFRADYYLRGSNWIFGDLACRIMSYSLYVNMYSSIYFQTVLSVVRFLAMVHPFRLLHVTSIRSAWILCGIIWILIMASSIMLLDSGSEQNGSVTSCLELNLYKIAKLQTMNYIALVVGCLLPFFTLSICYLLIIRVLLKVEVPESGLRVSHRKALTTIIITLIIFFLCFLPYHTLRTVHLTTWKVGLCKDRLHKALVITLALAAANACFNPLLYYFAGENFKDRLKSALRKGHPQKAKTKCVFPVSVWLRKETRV
Experiment: FRET or BRET

- ligand-independent net BRET^2 ratio: 0.00151 ± 0.0004
B1: β-Arrestin1-RLuc3 (natural protein, UniProt P49407 1-418, looked up)
chain: MGDKGTRVFKKASPNGKLTVYLGKRDFVDHIDLVDPVDGVVLVDPEYLKERRVYVTLTCAFRYGREDLDVLGLTFRKDLFVANVQSFPPAPEDKKPLTRLQERLIKKLGEHAYPFTFEIPPNLPCSVTLQPGPEDTGKACGVDYEVKAFCAENLEEKIHKRNSVRLVIRKVQYAPERPGPQPTAETTRQFLMSDKPLHLEASLDKEIYYHGEPISVNVHVTNNTNKTVKKIKISVRQYADICLFNTAQYKCPVAMEEADDTVAPSSTFCKVYTLTPFLANNREKRGLALDGKLKHEDTNLASSTLLREGANREILGIIVSYKVKVKLVVSRGGLLGDLASSDVAVELPFTLMHPKPKEEPPHREVPENETPVDTNLIELDTNDDDIVFEDFARQRLKGMKDDKEEEEDGTGSPQLNNR
